# Measured values taken from IntAct's records for PubMed 35869491.
# B1: Spastin (Homo sapiens), Q9UBP0-1 (parent)
# chain: MNSPGGRGKKKGSGGASNPVPPRPPPPCLAPAPPAAGPAPPPESPHKRNLYYFSYPLFVGFALLRLVAFHLGLLFVWLCQRFSRALMAAKRSSGAAPAPASASAPAPVPGGEAERVRVFHKQAFEYISIALRIDEDEKAGQKEQAVEWYKKGIEELEKGIAVIVTGQGEQCERARRLQAKMMTNLVMAKDRLQLLEKMQPVLPFSKSQTDVYNDSTNLACRNGHLQSESGAVPKRKDPLTHTSNSLPRSKTVMKTGSAGLSGHHRAPSYSGLSMVSGVKQGSGPAPTTHKGTPKTNRTNKPSTPTTATRKKKDLKNFRNVDSNLANLIMNEIVDNGTAVKFDDIAGQDLAKQALQEIVILPSLRPELFTGLRAPARGLLLFGPPGNGKTMLAKAVAAESNATFFNISAASLTSKYVGEGEKLVRALFAVARELQPSIIFIDEVDSLLCERREGEHDASRRLKTEFLIEFDGVQSAGDDRVLVMGATNRPQELDEAVLRRFIKRVYVSLPNEETRLLLLKNLLCKQGSPLTQKELAQLARMTDGYSGSDLTALAKDAALGPIRELKPEQVKNMSASEMRNIRLSDFTESLKKIKRSVSPQTLEAYIRWNKDFGDTTV
# Variants of: B1
# Conditions: with fxl17_human FBXL17, Q9UF56
# fxl17_human FBXL17, Q9UF56, sequence (Q9UF56 whole entry): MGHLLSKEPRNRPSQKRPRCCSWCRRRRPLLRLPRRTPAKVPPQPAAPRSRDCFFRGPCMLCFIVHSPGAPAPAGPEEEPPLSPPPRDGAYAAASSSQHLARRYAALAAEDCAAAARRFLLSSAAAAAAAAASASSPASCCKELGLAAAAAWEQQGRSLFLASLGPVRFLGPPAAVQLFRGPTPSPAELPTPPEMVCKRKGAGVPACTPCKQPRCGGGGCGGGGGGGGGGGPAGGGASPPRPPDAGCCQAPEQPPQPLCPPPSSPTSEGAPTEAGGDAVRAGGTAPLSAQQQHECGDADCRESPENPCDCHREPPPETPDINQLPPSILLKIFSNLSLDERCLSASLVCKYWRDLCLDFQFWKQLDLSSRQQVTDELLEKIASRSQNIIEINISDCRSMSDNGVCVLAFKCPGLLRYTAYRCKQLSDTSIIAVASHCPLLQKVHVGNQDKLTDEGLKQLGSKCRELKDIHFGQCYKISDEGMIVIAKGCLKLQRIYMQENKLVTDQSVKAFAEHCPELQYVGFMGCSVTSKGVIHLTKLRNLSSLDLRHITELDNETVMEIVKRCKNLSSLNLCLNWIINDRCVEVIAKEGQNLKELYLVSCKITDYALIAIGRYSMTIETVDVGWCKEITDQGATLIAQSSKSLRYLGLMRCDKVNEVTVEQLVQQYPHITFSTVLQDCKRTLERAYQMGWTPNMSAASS
row,Variant,effect of a mutation on the interaction
1,Y52C,disrupting interaction strength
